Laboratory results reported in patent US20230374149A1 (SHANGHAI HANSOH BIOMEDICAL, published 2023).

Molecular target: T1, His-tagged human TROP-2 (TROP-2-His), SinoBiologics 10428-H08H (human, UniProt P09758 27-274)
T1 construct: Bought protein; also called TROP-2 His protein; human TROP-2 His antigen; not shown: His tag
T1 sequence: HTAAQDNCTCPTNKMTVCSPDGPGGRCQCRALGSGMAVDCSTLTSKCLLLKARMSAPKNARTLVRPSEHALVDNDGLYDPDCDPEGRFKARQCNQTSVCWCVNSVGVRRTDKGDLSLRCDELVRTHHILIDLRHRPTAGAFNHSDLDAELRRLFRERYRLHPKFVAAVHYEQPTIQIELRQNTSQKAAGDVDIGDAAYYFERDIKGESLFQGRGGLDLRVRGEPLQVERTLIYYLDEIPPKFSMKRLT
Assay: indirect ELISA, coated TROP-2 His

B1: murine monoclonal antibody M1 (antibody, V domains shown)
VH: QVQLQQPGAELVRPGASVKLSCRASGYTFTNYWMNWVKQRPEQGLEWIGRIDPNDSETHYNQKFKDRAILTVDKASNTAYMQLSGLTSEDSAVHYCARSGFGSTYWFFDVWGAGTTVTVSS
VL: DIVMTQSHKFMSTSVGDRVSITCKASQDVSTAVAWYQQKPGQSPKLLIYSASYRYTGVPDRFAGSGYGTDFTFTISSVQTEDLTVYHCQQHYSTPLTFGPGTRLELK
notes: It is called a murine antibody, but the ELISA used a goat-anti-human secondary antibody
EC50: 0.56 nM
